Changes are numbered by the printed parent chain.

The target of test [1] is T1, HSA (UniProt P02768 25-609). The test can be described thus: ELISA, HSA dried on Terasaki plates, Experiment A. The procedure: (§1) The plates were blocked for 1 hour at room temperature using PBS/3% BSA and washed three times with PBS. Serial dilutions of test antibodies in PBS/3% BSA were applied to the wells and the plates incubated for 1 hour before washing as above. Suitable anti-murine antibody or anti-human antibody alkaline phosphatase-conjugated antibodies were diluted in PBS/3% BSA and incubated in the wells for 1.5 h. After washing, colour was developed using diethanolamine and p-nitrophenyl phosphate at 37° C. for about 20 min and the absorbances measured at 405 mn.
T1 sequence (P02768 25-609): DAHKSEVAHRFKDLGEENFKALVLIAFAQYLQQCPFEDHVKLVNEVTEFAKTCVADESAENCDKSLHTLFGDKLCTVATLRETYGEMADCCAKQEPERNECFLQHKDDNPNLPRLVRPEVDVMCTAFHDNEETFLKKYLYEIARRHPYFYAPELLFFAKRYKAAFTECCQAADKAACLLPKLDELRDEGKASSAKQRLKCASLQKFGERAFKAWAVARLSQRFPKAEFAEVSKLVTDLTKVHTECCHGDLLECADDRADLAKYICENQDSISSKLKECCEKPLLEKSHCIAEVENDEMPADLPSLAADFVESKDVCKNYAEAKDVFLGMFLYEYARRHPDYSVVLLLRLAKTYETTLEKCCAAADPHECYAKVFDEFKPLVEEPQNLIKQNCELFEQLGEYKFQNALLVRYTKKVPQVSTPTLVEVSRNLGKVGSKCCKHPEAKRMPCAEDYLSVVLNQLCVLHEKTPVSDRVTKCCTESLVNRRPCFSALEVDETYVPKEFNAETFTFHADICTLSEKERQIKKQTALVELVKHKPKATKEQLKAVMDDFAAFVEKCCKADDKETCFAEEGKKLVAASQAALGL
A general note: In an ELISA, binding on a coated surface is turned into a signal by an enzyme label.

In test [2] the target is T1, HSA. The test can be described thus: ELISA, HSA dried on Terasaki plates, Experiment B. As to the method:
as §1

B1: murine monoclonal antibody 3S193 (antibody, V domains shown)
VH: EVKLVESGGGLVQPGGSLKLSCATSGFTFSDYYMYWVRQTPEKRLEWVAYMSNVGAITDYPDTVKGRFTISRDNAKSTLYLQMSRLRSEDTAMYYCARGTRDGSWFAYWGQGTLVTVSA
VL: DVLMTQTPLSLPVSLGDQASISCRSSQRIVHSNGNTYLEWYLQKPGQSPKLLIYKVSNRFSGVPDRFSGSGSGTDFTLKISRVEAEDLGVYYCFQGSHVPFTFGSGTKLEIK
notes: The N-terminal residues of the VK in the listing are dictated by the VK10BACK primer; also called murine 3S193
B1: the binding result in the test with HSA [1] is on record as “no binding (tested: 100 µg/ml (highest concentration tested))”.

B2: humanized 3S193 antibody HuVH/HuVK (antibody, V domains shown)
VH: EVQLVESGGGVVQPGRSLRLSCSSSGFTFSDYYMYWVRQAPGKGLEWVAYMSNVGAITDYPDTVKGRFTISRDNSKNTLFLQMDSLRPEDTGVYFCARGTRDGSWFAYWGQGTPVTVSS
VL: DIQMTQSPSSLSASVGDRVTITCRSSQRIVHSNGNTYLEWYQQTPGKAPKLLIYKVSNRFSGVPSRFSGSGSGTDYTFTISSLQPEDIATYYCFQGSHVPFTFGQGTKLQIT
notes: also called 3S193 HuVH/HuVK
In the case of B2, the binding result in the test with HSA [1] is recorded as “no binding (tested: 100 µg/ml (highest concentration tested))”.

B3: humanized 3S193 antibody HuVHA/HuVKF (antibody, V domains shown)
VH: B2 VH with S75A
VL: B2 VL with Y76F
As for B3, the binding result in the test with HSA [2] is “no binding (tested: 100 µg/ml (highest concentration tested))”.

B4: humanized 3S193 antibody HuVHASY/HuVKF (antibody, V domains shown)
VH: B2 VH with S75A, N77S, F80Y
VL: B2 VL with Y76F
notes: also called 3S193HuVHASY
On to B4, for which the binding result in the test with HSA [2] is listed as “no binding (tested: 100 µg/ml (highest concentration tested))”.

B5: humanized 3S193 antibody HuVHAS/HuVKF (antibody, V domains shown)
VH: B2 VH with S75A, N77S
VL: B2 VL with Y76F
B5: in the test with HSA [2], the binding result is reported as “no binding (tested: 100 µg/ml (highest concentration tested))”.
